Source: US20160272995A1, “MANIPULATION OF PLASMODESMAL CONNECTIVITY TO IMPROVE PLANT YIELD AND FITNESS” (UNIVERSITY OF DELAWARE, priority 2013, published 2016)

What was measured:
Arabidopsis thaliana [1] = assay: Drought test: 2 weeks water withdrawal, then rewatering; type: in vivo; details: rewatering after 2 weeks water withdrawal
Description: All plant lines were grown for 2 weeks with water prior to the 2 week water withdrawal. (a) Plants having a severe knock down of PDLP5 (pdlp5-1) and PDLP5-m5 plants bolt faster than plants overexpressing PDLP5 (OX) and wild type (WT) plants. (b) Plants overexpressing PDLP5 (OX) revive 3 days post rewatering (DPR). (c) Plants overexpressing PDLP5 (OX) fully recover and 10 days post rewatering (DPR); wild type (WT) plants are dead, and PDLP5-m5 plants continue to survive.
(a) Plants overexpressing PDLP5 (OX), wild type (WT) plants, plants having a severe knock down of PDLP5 (pdlp5-1), and three different PDLP5-m5 plants (T3-4-2, T2-6, and T2-26) which were all grown a different number of days as required to reach same rosette size before water withdrawal. Plants having the same rosette size are referred to as “same day bolting samples.” (b) Same day bolting samples of plants overexpressing PDLP5 (OX), wild type (WT) plants, plants having a severe knock down of PDLP5 (pdlp5-1), and three different PDLP5-m5 plants (T3-4-2, T2-6, and T2-26) at the end of a 2 week water withdrawal. (c) Same day bolting samples of plants overexpressing PDLP5 (OX) and two different PDLP5-m5 plants (T3-4-2 and T2-26) recover fully 3 days post rewatering.
Transgenic T1 plants were selected on basta+plates and homozygous T2 lines were identified by segregation test on T3 plants. For the drought test, homozygous lines were grown in soil for the 2 weeks with watering followed by 2 weeks of water withdrawal. Tolerance to drought stress of the PDLP5-m5 was assessed by the plant growth or death upon resuming watering.
PDLP5-m5 plants were evaluated by exposing them to drought conditions. PDLP-m5 plants were grown under normal conditions with water, water was withdrawn for 2 weeks, and rewatering was commenced. Plants having a severe knock down of PDLP5 (pdlp5-1) and PDLP5-m5 plants bolt faster than plants overexpressing PDLP5 and wild type plants (FIG. 13A). […] The early bolting of the PDLP5-m5 plants appeared to affect plant revival. Therefore, the experiment was repeated using same day bolting samples. Briefly, plants having the same rosette size were used, regardless of the number of days required to achieve that rosette size (FIG. 14A).

Arabidopsis thaliana [2] = assay: Vegetative growth, flowering and seed yield of plants; type: in vivo; details: 22-20° C., 16/8 hours light/darkness
Description: Wild type (WT) plants, plants overexpressing […]), and plants with a severe knock down of […] used as comparisons. (a) Whole plants at 10, 14, and 18 days post germination (dpg). Plants were grown at 22-20° C. with 50% humidity and with 16/8 hours light/darkness. (b) Leaves at 3 weeks post germination. Plants were grown at 24-22° C. with 70% humidity and with 16/8 hours light/darkness. […] Wild type (WT) plants, plants overexpressing PDLP5 (OX), and plants with a severe knock down of PDLP5 (KO) were used as comparisons. […] Seeds were germinated on plates, were transferred to soil after 1 week, and plants were grown at 22-20° C. with 16/8 hours light/darkness. […] Wild type (WT) plants and plants overexpressing […]) were used as comparisons. Plants were grown at 24-22° C. with 70% humidity and with 16/8 hours light/darkness. […] The sequence of the PCR product was confirmed followed by transformation of Top10 E. coli competent cells. […] Agrobacteria were transformed with the […]5 clone.

[3] = test system: lateral root primordia (LRP); assay: LRP progression after gravitropic stimulus; type: in vivo, Arabidopsis thaliana; details: by 48 hpg
Description: (A) Lateral root development in wild type (WT) plants, plants having a severe knock down of PDLP5 (pdlp5-1), and plants overexpressing PDLP5 (PDLPOE) expressing DR5:GUS. Arrowheads indicate tertiary roots. (B) Quantification of total lateral root numbers (both emerged and unemerged secondary [2°], tertiary [3°], and quaternary [4°] roots). n≧30 per seedling set. Bars, standard deviation. Stars, significance determined by student T-test (P<0.01). (C) A diagram depicting several stages of LRP emergence. (D) Percent distribution of LRP stages, recorded at root bend at indicated time points following gravistimulation at 3 dpg. n≧20 seedlings per set. […]
GUS solution (100 mM sodium phosphate buffer, pH 7.0, 10 mM EDTA, 0.5 mM each potassium ferrocyanide and potassium ferricyanide, 1.24 mM X-Gluc, and 0.1% Triton X-100) was vacuum-infiltrated into plant tissue for five minutes, then removed from vacuum and incubated in 37° C. for 3 to 12 hrs, followed by a series of ethanol washes. […] LRP were quantified by counting both the emerged LR and unemerged LR, as determined by DRS::GUS staining of the primordia, under a dissecting microscope (1.2× magnification). LRP stages were determined by examining ethanol-cleared, GUS-stained tissue using 40× water lens.

Pseudomonads = details: Arabidopsis plants; cited from earlier work
[4] = Arabidopsis plants; cited from earlier work

B1: PDLP5OE: Wild-type A. thaliana PDLP5 protein (SEQ ID NO:4) constitutively overexpressed in plants under the 35S promoter (protein, listed as Arabidopsis thaliana)
chain: MIKTKTTSLLCFLLTAVILMNPSSSSPTDNYIYAVCSPAKFSPSSGYETNLNSLLSSFVTSTAQTRYANFTVPTGKPEPTVTVYGIYQCRGDLDPTACSTCVSSAVAQVGALCSNSYSGFLQMENCLIRYDNKSFLGVQDKTLILNKCGQPMEFNDQDALTKASDVIGSLGTGDGSYRTGGNGNVQGVAQCSGDLSTSQCQDCLSDAIGRLKSDCGMAQGGYVYLSKCYARFSVGGSHARQTPGPNFGHEGEKGNKDDNGVGKTLAIIIGIVTLIILLVVFLAFVGKCCRKLQDEKWCK
In the case of B1, the outcome upon rewatering (Arabidopsis thaliana [1]) is reported as “recovered after rewatering”, the rosette diameter (Arabidopsis thaliana [2]) is reported as “reduced rosette diameter” and the LRP emergence [3] is reported as “none had yet emerged”. For the same molecule, the immunity to infection (Pseudomonads) was “innate immunity to Pseudomonads infection” and the “total SA compared with the wild-type control” value [4] was 15 fold.
